Measurements from US9994644B2, “mAB 2 anti-Met antibody” (Agency for Science, Technology and Research, priority 2013, dated 2018).
Entries after “also recorded” stand apart in the source; their conditions may differ.

Tests used:
[1] = tested on: SNU-5 cells; assay: CellTiter-Glo luminescent cell viability assay; type: cell-based, human; conditions: SNU-5, 72 hrs; mAb 10 μg/mL, SU11274 5 μM
Procedure: (§1) In order to determine if these antibodies have any physiological effects on tumour cells, 10 μg/mL of mAb was added to SNU-5 cells. […] This indicates SU11274 mode of mechanism is by activation of caspase which in turn result in apoptosis of SNU-5 tumour cells.
(§2) CellTiter-Glo® luminescent cell viability assay and Caspase-Glo® 3/7 Assay (Promega, U.S.A.) were used to determine cell viability and caspase activation respectively. SNU-5 cells (1×10^5 cells) were seeded in each 96-well and treated for 72 hrs before analysis. Cell viability and caspase activation were performed according to manufacturer's protocol. Luminescence was read using the EnVision plate reader (PerkinElmer, U.S.A.).

[2] = tested on: caspase activation in SNU-5 cells; assay: Caspase-Glo 3/7 caspase activation assay; type: cell-based, human; conditions: SNU-5, 72 hrs; mAb 10 μg/mL, SU11274 5 μM
Procedure: as §1, §2

[3] = tested on: SNU-5 cells; assay: Cell proliferation by CellTracker Green BODIPY dye retention; type: cell-based, human; conditions: SNU-5, 10 μg/mL mAb, 6 days
Procedure: CellTracker BODIPY dye is a membrane permeable dye that enters cells freely. Once in the cell, the dye is converted to a membrane impermeable product which labels the cell green. The dye is passed on to dividing daughter cells but is not transferable to neighbouring cells. Dividing cells would fail to retain the green dye as it is being diluted to progeny cells. Cells were treated with 10 μg/mL of monoclonal antibodies for 6 days and dye retention in cells was analysed by flow cytometry.
SNU-5 cells were stained with 5 μM of CellTracker BODIPY dye for 30 mins. Stained cells were seeded and treated with anti-α-chain c-Met monoclonal antibodies for 6 days. Cells were harvested and dye retention in live cells were analysed by flow cytometry.

[4] = tested on: SNU-5 cells; assay: Immunofluorescence of antibody internalisation; type: cell-based, human; conditions: SNU-5, 10 μg/mL mAb
Procedure: In order to determine if mAb 2 and 13 were internalised into the cell upon antibody binding, SNU-5 cells were incubated with 10 μg/mL of anti-α-chain monoclonal antibody. Monoclonal antibody treated cells were fixed and permeablised. Bound and internalised antibody was detected by anti-mouse Alexa Fluor®488-conjugated secondary antibody. Antibody localisation was observed by confocal microscopy.
10 μg/mL of anti-α-chain monoclonal antibody were incubated with live SNU-5 cells for 1 hr at 4° C. or 37° C. Antibody-treated cells were washed once with PBS and deposited onto polylysine-coated slides (Thermo Scientific, #5991056) using the Thermo Shandon Cytospin 3 Cytofuge (Thermo Scientific) at 800 rpm for 5 mins and fixed immediately in 4% paraformaldehyde. Cells were then blocked and permeablised in PBS containing 0.4% Triton X-100 and 5% BSA. Bound anti-α-chain c-Met antibodies were detected using anti-mouse Alexa Fluor®488-conjugated secondary antibody. Phallodin was added together with the secondary antibodies. Cells were washed before staining with 4′,6′-diamidino-2-phenylindole (DAPI) and mounted with Hydromount (National Diagnostics, U.S.A.) containing 2.5% DABCO (1,4-Diazabicyclo-[2.2.2]octane) (Sigma-Aldrich) as an anti-bleaching agent Immunofluorescence was observed using Nikon Eclipse E600 microscope.

[5] = target: T1, c-Met α-chain peptides (Homo sapiens, UniProt P08581); assay: Pepscan ELISA-based epitope mapping; type: binding; design: mAb 2 binding to peptide O27: dose or concentration left out as unconfirmed; conditions: absorbance at 450 nm
T1 construct: consecutive overlapping peptides that span the entire c-Met α-chain; purchased Mimotopes (Australia); host or cells: chemical synthesis
Procedure: (§3) Identifying the region of c-Met bound by the antibody is important in determining whether the antibody might be able to block c-Met from binding to its ligand, HGF. Using an ELISA-based assay (Pepscan), synthesised peptides were added to strepatvidin-coated plates and antibody binding to their respective epitopes was determined colorimetrically. The peptides were consecutive overlapping peptides that span the entire c-Met α-chain.
(§4) Peptides that were linked to biotin by an SGSG linker sequence at the N-terminus were synthesised by Mimotopes (Australia). Peptides for Pepscan: Peptides that span the entire α-chain of c-Met were synthesised. A total of fifty-five peptides with consecutive, overlapping sequences were synthesised. […]
(§5) Variations of peptides O28 and O29, where each amino acid residue was sequentially substituted for an alanine residue, were synthesised. […] Colour change was monitored by eye and the reaction was stopped by adding 100 mM sulphuric acid. Absorbance was read at 450 nm in a microplate reader (SPECTRAmax PLUS^384, Molecular Device, U.S.A.). […] Computer imaging of the epitopes were analysed by PyMol (DeLano Scientific LLC, U.S.A.) software.
(§6) Pepscan analysis was used to determine the region of c-Met α-chain bound by mAb 2. […] Binding of the antibody was detected by colorimetric assay and analysed by absorbance reading at […].

[6] = tested on: c-Met α-chain peptides; assay: Pepscan ELISA-based epitope mapping; type: binding, human; design: mAb 2 binding to peptide O27: dose or concentration left out as unconfirmed; conditions: absorbance at 450 nm
Procedure: as §3, §4, §5, §6

B1: mAb 2: murine bivalent anti-α-chain c-Met monoclonal antibody, IgG1, kappa; CDRs SEQ ID NO: 2-7; epitope IEE and CPDC (antibody, listed as Homo sapiens)
heavy: QVQLKESGGGLVQPGGSLTLSCATSGFTFTDHYMSWVRQPPGKALEWLAFIRNKAKGYTTEYNASVRGRFTISRDNSQNIVYLQMNTLRTEDSATYYCARDGVGIAYWGQTLVTVSAAKTTPPSVYPLAP
light: SIVMTQSPLSLPVSLGDQASISCRSSQSLENINGNTYKNWYFQKPGQSPQLLIYRVSNRVSGVLDRFSGSGSGTDFTLKITRVEAEDLGVYFCLQVTHVPWTFGGGTKLEIKRADAAPTKSIS
B1 was tested, and the cell viability [1] was “reduced cell viability”, the caspase activation [2] was “reduced caspase activation; also recorded: do not activate caspase activation” and the “CellTracker Green BODIPY fluorescence retention” value [3] was “retained significant levels of green fluorescence”. The “internalisation into the cell” value [4] was “internalised upon binding to c-Met; also recorded: internalised into the tumour cell”, the “antibody localisation at 4° C.” value ([4]; 1 hr, 4° C.) was “localised on the cell membrane with diffused cytoplasmic staining” and the “antibody localisation at 37° C.” value ([4]; 1 hr, 37° C.) was “increase staining was observed in the cytoplasm”. The “mAb 2 binding to peptide O27” value [5] was “does not bind” and the “mAb 2 binding to peptides O28 and O29” value [6] was “equal affinity; also recorded: no binding preference”.
